From patent publication US20220378923A1, “BET DEGRADER” (KYOWA KIRIN CO., LTD., priority 2019, published 2022)

Key:
[1] = target: DCAF16 with HaloTag added to the C-terminal (expressed from plasmid pFC27K_DCAF16) (human) (UniProt Q9NXF7); experiment: NanoBRET in HEK293 cells, Nluc-BRD2 and DCAF16-HaloTag with 618 Ligand, MLN4924; 1.0 umol/L compound 3b
[2] = target: DCAF16 with HaloTag added to the C-terminal (expressed from plasmid pFC27K_DCAF16) (human) (UniProt Q9NXF7); experiment: NanoBRET in HEK293 cells, Nluc-BRD2 and DCAF16-HaloTag with 618 Ligand, bortezomib; 10 umol/L compound 3b; mean of n=3
[3] = target: DCAF16 with HaloTag added to the C-terminal (expressed from plasmid pFC27K_DCAF16) (human) (UniProt Q9NXF7); experiment: NanoBRET in HEK293 cells, Nluc-BRD2 and DCAF16-HaloTag with 618 Ligand, bortezomib; 10 umol/L compound 1l; mean of n=3
[4] = target: DCAF16 with HaloTag added to the C-terminal (expressed from plasmid pFC27K_DCAF16) (human) (UniProt Q9NXF7); experiment: NanoBRET in HEK293 cells, Nluc-BRD2 and DCAF16-HaloTag with 618 Ligand, MLN4924; 1.0 umol/L compound 12c
[5] = target: DCAF16 with HaloTag added to the C-terminal (expressed from plasmid pFC27K_DCAF16) (human) (UniProt Q9NXF7); experiment: NanoBRET in HEK293 cells, Nluc-BRD2 and DCAF16-HaloTag with 618 Ligand, bortezomib; 10 umol/L compound 15a; mean of n=3
[6] = target: DCAF16 with HaloTag added to the C-terminal (expressed from plasmid pFC27K_DCAF16) (human) (UniProt Q9NXF7); experiment: NanoBRET in HEK293 cells, Nluc-BRD2 and DCAF16-HaloTag with 618 Ligand, bortezomib; 10 umol/L compound 7o; mean of n=3
[7] = target: DCAF16 with HaloTag added to the C-terminal (expressed from plasmid pFC27K_DCAF16) (human) (UniProt Q9NXF7); experiment: NanoBRET in HEK293 cells, Nluc-BRD2 and DCAF16-HaloTag with 618 Ligand, MLN4924; 1.0 umol/L compound 7o
[8] = target: DCAF16 with HaloTag added to the C-terminal (expressed from plasmid pFC27K_DCAF16) (human) (UniProt Q9NXF7); experiment: NanoBRET in HEK293 cells, Nluc-BRD2 and DCAF16-HaloTag with 618 Ligand, bortezomib; 10 umol/L compound 3a; mean of n=3
[9] = target: DCAF16 with HaloTag added to the C-terminal (expressed from plasmid pFC27K_DCAF16) (human) (UniProt Q9NXF7); experiment: NanoBRET in HEK293 cells, Nluc-BRD2 and DCAF16-HaloTag with 618 Ligand, bortezomib; 10 umol/L compound 6k; mean of n=3
[10] = target: DCAF16 with HaloTag added to the C-terminal (expressed from plasmid pFC27K_DCAF16) (human) (UniProt Q9NXF7); experiment: NanoBRET in HEK293 cells, Nluc-BRD2 and DCAF16-HaloTag with 618 Ligand, bortezomib; 10 umol/L compound 3e; mean of n=3
[11] = target: DCAF16 with HaloTag added to the C-terminal (expressed from plasmid pFC27K_DCAF16) (human) (UniProt Q9NXF7); experiment: NanoBRET in HEK293 cells, Nluc-BRD2 and DCAF16-HaloTag with 618 Ligand, MLN4924; 1.0 umol/L compound 8j
[12] = target: DCAF16 with HaloTag added to the C-terminal (expressed from plasmid pFC27K_DCAF16) (human) (UniProt Q9NXF7); experiment: NanoBRET in HEK293 cells, Nluc-BRD2 and DCAF16-HaloTag with 618 Ligand, bortezomib; 10 umol/L compound 15f; mean of n=3
[13] = target: DCAF16 with HaloTag added to the C-terminal (expressed from plasmid pFC27K_DCAF16) (human) (UniProt Q9NXF7); experiment: NanoBRET in HEK293 cells, Nluc-BRD2 and DCAF16-HaloTag with 618 Ligand, MLN4924; 1.0 umol/L compound 15a
[14] = target: DCAF16 with HaloTag added to the C-terminal (expressed from plasmid pFC27K_DCAF16) (human) (UniProt Q9NXF7); experiment: NanoBRET in HEK293 cells, Nluc-BRD2 and DCAF16-HaloTag with 618 Ligand, MLN4924; 1.0 umol/L compound 1l
[15] = target: DCAF16 with HaloTag added to the C-terminal (expressed from plasmid pFC27K_DCAF16) (human) (UniProt Q9NXF7); experiment: NanoBRET in HEK293 cells, Nluc-BRD2 and DCAF16-HaloTag with 618 Ligand, bortezomib; 10 umol/L compound 1h; mean of n=3
[16] = target: DCAF16 with HaloTag added to the C-terminal (expressed from plasmid pFC27K_DCAF16) (human) (UniProt Q9NXF7); experiment: NanoBRET in HEK293 cells, Nluc-BRD2 and DCAF16-HaloTag with 618 Ligand, bortezomib; 10 umol/L compound 8a; mean of n=3
[17] = target: DCAF16 with HaloTag added to the C-terminal (expressed from plasmid pFC27K_DCAF16) (human) (UniProt Q9NXF7); experiment: NanoBRET in HEK293 cells, Nluc-BRD2 and DCAF16-HaloTag with 618 Ligand, MLN4924; 1.0 umol/L compound 6k
[18] = target: DCAF16 with HaloTag added to the C-terminal (expressed from plasmid pFC27K_DCAF16) (human) (UniProt Q9NXF7); experiment: NanoBRET in HEK293 cells, Nluc-BRD2 and DCAF16-HaloTag with 618 Ligand, MLN4924; DMSO control without test compound
[19] = target: DCAF16 with HaloTag added to the C-terminal (expressed from plasmid pFC27K_DCAF16) (human) (UniProt Q9NXF7); experiment: NanoBRET in HEK293 cells, Nluc-BRD2 and DCAF16-HaloTag with 618 Ligand, bortezomib; 10 umol/L compound 12c; mean of n=3
[20] = target: DCAF16 with HaloTag added to the C-terminal (expressed from plasmid pFC27K_DCAF16) (human) (UniProt Q9NXF7); experiment: NanoBRET in HEK293 cells, Nluc-BRD2 and DCAF16-HaloTag with 618 Ligand, bortezomib; 10 umol/L compound 8j; mean of n=3
[21] = target: DCAF16 with HaloTag added to the C-terminal (expressed from plasmid pFC27K_DCAF16) (human) (UniProt Q9NXF7); experiment: NanoBRET in HEK293 cells, Nluc-BRD2 and DCAF16-HaloTag with 618 Ligand, bortezomib; DMSO control without test compound; mean of n=3
[22] = target: DCAF16 with HaloTag added to the C-terminal (expressed from plasmid pFC27K_DCAF16) (human) (UniProt Q9NXF7); experiment: NanoBRET in HEK293 cells, Nluc-BRD2 and DCAF16-HaloTag with 618 Ligand, MLN4924; 1.0 umol/L compound 1h
[23] = target: DCAF16 with HaloTag added to the C-terminal (expressed from plasmid pFC27K_DCAF16) (human) (UniProt Q9NXF7); experiment: NanoBRET in HEK293 cells, Nluc-BRD2 and DCAF16-HaloTag with 618 Ligand, MLN4924; 1.0 umol/L comparative compound 1 (compound P3, known bivalent BET inhibitor)
[24] = target: DCAF16 with HaloTag added to the C-terminal (expressed from plasmid pFC27K_DCAF16) (human) (UniProt Q9NXF7); experiment: NanoBRET in HEK293 cells, Nluc-BRD2 and DCAF16-HaloTag with 618 Ligand, MLN4924; 1.0 umol/L compound 7p
[25] = target: DCAF16 with HaloTag added to the C-terminal (expressed from plasmid pFC27K_DCAF16) (human) (UniProt Q9NXF7); experiment: NanoBRET in HEK293 cells, Nluc-BRD2 and DCAF16-HaloTag with 618 Ligand, MLN4924; 1.0 umol/L compound 3e
[26] = target: DCAF16 with HaloTag added to the C-terminal (expressed from plasmid pFC27K_DCAF16) (human) (UniProt Q9NXF7); experiment: NanoBRET in HEK293 cells, Nluc-BRD2 and DCAF16-HaloTag with 618 Ligand, MLN4924; 1.0 umol/L compound 15f
[27] = target: DCAF16 with HaloTag added to the C-terminal (expressed from plasmid pFC27K_DCAF16) (human) (UniProt Q9NXF7); experiment: NanoBRET in HEK293 cells, Nluc-BRD2 and DCAF16-HaloTag with 618 Ligand, MLN4924; 1.0 umol/L compound 8a
[28] = target: DCAF16 with HaloTag added to the C-terminal (expressed from plasmid pFC27K_DCAF16) (human) (UniProt Q9NXF7); experiment: NanoBRET in HEK293 cells, Nluc-BRD2 and DCAF16-HaloTag with 618 Ligand, MLN4924; 1.0 umol/L compound 3a
[29] = target: DCAF16 with HaloTag added to the C-terminal (expressed from plasmid pFC27K_DCAF16) (human) (UniProt Q9NXF7); experiment: NanoBRET in HEK293 cells, Nluc-BRD2 and DCAF16-HaloTag with 618 Ligand, bortezomib; 10 umol/L compound 7p; mean of n=3

Sequence of DCAF16 with HaloTag added to the C-terminal (expressed from plasmid pFC27K_DCAF16) (human) (Q9NXF7 whole entry): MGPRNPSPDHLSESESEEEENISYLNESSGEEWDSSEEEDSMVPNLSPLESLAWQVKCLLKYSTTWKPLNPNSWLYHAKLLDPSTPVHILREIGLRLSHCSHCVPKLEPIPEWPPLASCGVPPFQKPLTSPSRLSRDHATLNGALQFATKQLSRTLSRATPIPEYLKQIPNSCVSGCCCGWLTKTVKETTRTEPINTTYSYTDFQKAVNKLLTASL

BRET Ratio [1]: 9.69
BRET Ratio [2]: 6.06
BRET Ratio [3]: 8.03
BRET Ratio [4]: 13.2
BRET Ratio [5]: 5.88
BRET Ratio [6]: 6.69
BRET Ratio [7]: 13
BRET Ratio [8]: 8.51
BRET Ratio [9]: 7.07
BRET Ratio [10]: 5.96
BRET Ratio [11]: 11.9
BRET Ratio [12]: 5.99
BRET Ratio [13]: 9.59
BRET Ratio [14]: 14.9
BRET Ratio [15]: 6.84
BRET Ratio [16]: 7.27
BRET Ratio [17]: 12.6
BRET Ratio [18]: 0.99
BRET Ratio [19]: 7.6
BRET Ratio [20]: 7.07
BRET Ratio [21]: 1.51
BRET Ratio [22]: 10.9
BRET Ratio [23]: 1.93
BRET Ratio [24]: 11.6
BRET Ratio [25]: 9.58
BRET Ratio [26]: 12.4
BRET Ratio [27]: 12.4
BRET Ratio [28]: 14.5
BRET Ratio [29]: 6.8
Substance: BRD2 with an Nluc tag added to the N-terminal (expressed from plasmid pFN31A_BRD2) (from UniProt P25440 1-801)
